Assay results taken from patent US20240376170A1 (BRIGHT PEAK THERAPEUTICS, published 2024).
Like-named read-outs stand apart in the source and are kept apart here. Bridges are numbered along the chain shown (N, C = ends). Primed or numbered codes have the meaning given here. [ ]: non-standard residue; d: D form. Ygp(4) = Tyr with amino-capped PEG8 (O-(8x polyethylene glycol-amino)-tyrosine); Yn3(4) = Tyr with azide-capped PEG9 (O-(9x polyethylene glycol-azido)-tyrosine); Ygp = O-(8x polyethylene glycol-amino)-tyrosine (Tyr, amino-capped PEG8); Yn3 = O-(9x polyethylene glycol-azido)-tyrosine (Tyr, azide-capped PEG9); cleavable peptide‑PEG9‑glutaryl = not defined here; Ygp″ = O-(8x polyethylene glycol-amino)-tyrosine; Yn3″ = O-(9x polyethylene glycol-azido)-tyrosine; PEG4′ = 4x polyethylene glycol; PEG9′ = 9x polyethylene glycol; hSer = N[C@@H](CCO)C(=O)O; Nle = CCCC[C@H](N)C(=O)O

T1: IL-2 receptor βγ complex (human, UniProt P14784 27-551; P31785 23-369)
T1 sequence (looked up) 1: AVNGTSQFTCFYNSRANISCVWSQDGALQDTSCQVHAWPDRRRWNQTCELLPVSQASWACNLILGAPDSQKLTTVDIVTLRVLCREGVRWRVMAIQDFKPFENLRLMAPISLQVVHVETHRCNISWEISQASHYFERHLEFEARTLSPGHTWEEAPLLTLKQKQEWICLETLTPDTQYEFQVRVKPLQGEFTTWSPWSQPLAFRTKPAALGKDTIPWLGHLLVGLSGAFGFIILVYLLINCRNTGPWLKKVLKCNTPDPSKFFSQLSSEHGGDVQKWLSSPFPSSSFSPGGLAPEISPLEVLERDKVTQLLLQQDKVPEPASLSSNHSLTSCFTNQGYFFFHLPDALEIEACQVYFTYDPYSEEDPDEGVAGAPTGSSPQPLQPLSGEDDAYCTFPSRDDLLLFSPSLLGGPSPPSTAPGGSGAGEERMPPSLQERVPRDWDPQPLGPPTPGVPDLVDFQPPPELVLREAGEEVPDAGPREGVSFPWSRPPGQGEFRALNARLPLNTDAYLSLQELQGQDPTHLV
T1 sequence (looked up) 2: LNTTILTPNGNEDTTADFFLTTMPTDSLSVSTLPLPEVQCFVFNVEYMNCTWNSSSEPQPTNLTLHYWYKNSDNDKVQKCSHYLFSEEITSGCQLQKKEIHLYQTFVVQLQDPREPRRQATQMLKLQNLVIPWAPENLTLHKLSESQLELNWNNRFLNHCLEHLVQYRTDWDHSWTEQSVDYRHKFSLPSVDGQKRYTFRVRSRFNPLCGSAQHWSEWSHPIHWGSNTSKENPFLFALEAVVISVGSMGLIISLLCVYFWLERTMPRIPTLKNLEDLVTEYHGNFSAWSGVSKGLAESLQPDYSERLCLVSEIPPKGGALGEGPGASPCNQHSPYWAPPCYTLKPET

B1: CMP-162, MMP2 cleaved molecule (ligand)
chain: APTSSSTKKTQLQLEHLLLDLQKILNGINNYKNPKLTR[Nle]L[hSer][Yn3(4)]KF[Ygp(4)][Nle]PKKATELKHLQCLEEELKPLEEVL[hSer]LAQSKNFHLRPRDLISNINVIVLELKGSETTF[hSer]CEYADETATIVEFLNRWITFSQSIISTLT
modifications: not fully specified; ends and bridges not checked; also: MMP2 cleaved, cleavage site and linker fragment on Lys23 side chain not given here
B2: CMP-161 (ligand)
chain: PLGLAGAPTSSSTKKTQLQLEHLLLDLQ[Nle]ILEGINNYKNPKLTR[Nle]L[hSer][Yn3(4)]KF[Ygp(4)][Nle]PKKATELKHLQCLEEELKPLEEVL[hSer]LAQSKNFHLRPRDLISNINVIVLELKGSETTF[hSer]CEYADETATIVEFLNRWITFSQSIISTLT
modifications: bridge N-32; not fully specified (N-terminus, bridges); ends not checked
B3: CMP-160, MMP2 cleaved molecule (ligand)
chain: APTSSSTKKTQLQLEHLLLDLQ[Nle]ILEGINNYKNPKLTR[Nle]L[hSer][Yn3(4)]KF[Ygp(4)][Nle]PKKATELKHLQCLEEELKPLEEVL[hSer]LAQSKNFHLRPRDLISNINVIVLELKGSETTF[hSer]CEYADETATIVEFLNRWITFSQSIISTLT
modifications: not fully specified; ends and bridges not checked; also: MMP2 cleaved, cleavage site and linker fragments on N-terminus and Glu26 side chain not given here
B4: CMP-159, MMP2 cleaved molecule (ligand)
chain: PLGLAGAPTSSSTKKTQLQLEHLLLDLE[Nle]ILNGINNYKNPKLTR[Nle]L[hSer][Yn3(4)]KF[Ygp(4)][Nle]PKKATELKHLQCLEEELKPLEEVL[hSer]LAQSKNFHLRPRDLISNINVIVLELKGSETTF[hSer]CEYADETATIVEFLNRWITFSQSIISTLT
modifications: not fully specified (bridges); ends and bridges not checked; also: MMP2 cleaved, site not given here
B5: CMP-138 (ligand)
chain: [PEG4′]SGGPGPAGMKGLPGS[PEG4′]APTSSSTKKTQLQLEHLLLDLQ[Nle]ILNGIENYKNPKLTR[Nle]L[hSer][Yn3]KF[Ygp][Nle]PKKATELKHLQCLEEELKPLEEVL[hSer]LAQSKNFHLRPRDLISNINVIVLELKGSETTF[hSer]CEYADETATIVEFLNRWITFSQSIISTLT
modifications: bridge (positions not given here); not fully specified (bridges); ends not checked
B6: CMP-162 (ligand)
chain: APTSSSTKKTQLQLEHLLLDLQKILNGINNYKNPKLTR[Nle]L[hSer][Yn3(4)]KF[Ygp(4)][Nle]PKKATELKHLQCLEEELKPLEEVL[hSer]LAQSKNFHLRPRDLISNINVIVLELKGSETTF[hSer]CEYADETATIVEFLNRWITFSQSIISTLT
modifications: ends and bridges not checked; also: further groups not given here
B7: CMP-161, MMP2 cleaved molecule (ligand)
chain: PLGLAGAPTSSSTKKTQLQLEHLLLDLQ[Nle]ILEGINNYKNPKLTR[Nle]L[hSer][Yn3(4)]KF[Ygp(4)][Nle]PKKATELKHLQCLEEELKPLEEVL[hSer]LAQSKNFHLRPRDLISNINVIVLELKGSETTF[hSer]CEYADETATIVEFLNRWITFSQSIISTLT
modifications: not fully specified (bridges); ends and bridges not checked; also: MMP2 cleaved, site not given here
B8: CMP-165, MMP2 cleaved molecule (ligand)
chain: APTSSSTKKTQLQLEHLLLDLQKILNGINNYKNPKLTR[Nle]L[hSer][Yn3]KF[Ygp][Nle]PKKATELKHLQCLEEELKPLEEVL[hSer]LAQSKNFHLRPRDLISNINVIVLELKGSETTF[hSer]CEYADETATIVEFLNRWITFSQSIISTLT
modifications: ends and bridges not checked; also: MMP2 cleaved, cleavage site and linker fragments on N-terminus and Lys23 side chain not given here
B9: CMP-160 (ligand)
chain: GPLGLAG[PEG9′]APTSSSTKKTQLQLEHLLLDLQ[Nle]ILEGINNYKNPKLTR[Nle]L[hSer][Yn3(4)]KF[Ygp(4)][Nle]PKKATELKHLQCLEEELKPLEEVL[hSer]LAQSKNFHLRPRDLISNINVIVLELKGSETTF[hSer]CEYADETATIVEFLNRWITFSQSIISTLT
modifications: bridge N-34; not fully specified (bridges); ends not checked
B10: CMP-164, MMP2 cleaved molecule (ligand)
chain: APTSSSTKKTQLQLEHLLLDLQKILNGINNYKNPKLTR[Nle]L[hSer][Yn3]KF[Ygp][Nle]PKKATELKHLQCLEEELKPLEEVL[hSer]LAQSKNFHLRPRDLISNINVIVLELKGSETTF[hSer]CEYADETATIVEFLNRWITFSQSIISTLT
modifications: ends and bridges not checked; also: MMP2 cleaved, cleavage site and linker fragments on N-terminus and Lys23 side chain not given here
B11: CMP-164 (ligand)
chain: APTSSSTKKTQLQLEHLLLDLQKILNGINNYKNPKLTR[Nle]L[hSer][Yn3]KF[Ygp][Nle]PKKATELKHLQCLEEELKPLEEVL[hSer]LAQSKNFHLRPRDLISNINVIVLELKGSETTF[hSer]CEYADETATIVEFLNRWITFSQSIISTLT
modifications: bridge N-23; not fully specified (bridges); ends not checked; also: sequence of the cleavable peptide in the bridge not given here
B12: CMP-163, MMP2 cleaved molecule (ligand)
chain: APTSSSTKKTQLQLEHLLLDLQKILNGINNYKNPKLTR[Nle]L[hSer][Yn3(4)]KF[Ygp(4)][Nle]PKKATELKHLQCLEEELKPLEEVL[hSer]LAQSKNFHLRPRDLISNINVIVLELKGSETTF[hSer]CEYADETATIVEFLNRWITFSQSIISTLT
modifications: not fully specified; ends and bridges not checked
B13: CMP-151 (ligand)
chain: APTSSSTKKTQLQLEHLLLDLQKILNGINNYKNPKLTR[Nle]L[hSer][Yn3″]KF[Ygp″][Nle]PKKATELKHLQCLEEELKPLEEVL[hSer]LAQSKNFHLRPRDLISNINVIVLELKGSETTF[hSer]CEYADETATIVEFLNRWITFSQSIISTLT
modifications: linker N-23 via cleavable peptide‑PEG9‑glutaryl; reading uncertain
B14: CMP-136 (ligand)
chain: [PEG9′]PLGLAG[PEG9′]APTSSSTKKTQLQLEHLLLDLQ[Nle]ILNGIENYKNPKLTR[Nle]L[hSer][Yn3]KF[Ygp][Nle]PKKATELKHLQCLEEELKPLEEVL[hSer]LAQSKNFHLRPRDLISNINVIVLELKGSETTF[hSer]CEYADETATIVEFLNRWITFSQSIISTLT
modifications: bridge N-37; not fully specified (bridges); ends not checked
B15: CMP-165 (ligand)
chain: APTSSSTKKTQLQLEHLLLDLQKILNGINNYKNPKLTR[Nle]L[hSer][Yn3]KF[Ygp][Nle]PKKATELKHLQCLEEELKPLEEVL[hSer]LAQSKNFHLRPRDLISNINVIVLELKGSETTF[hSer]CEYADETATIVEFLNRWITFSQSIISTLT
modifications: bridge N-23; not fully specified (bridges); ends not checked; also: sequence of the cleavable peptide in the bridge not given here

Assays:
Assay in all cases: cell-based or functional assay
[1] = target: T1, IL-2 receptor βγ complex
[2] = target: T1, IL-2 receptor βγ complex; remark: listed apart in the source
[3] = target: T1, IL-2 receptor βγ complex; remark: listed apart in the source

| Binder | Average EC50, pSTAT5 Assay (T cells) [1] [nM] | Average EC50, pSTAT5 Assay in NK cells [2] [nM] | Average EC50, pSTAT5 Assay (T cells) [3] [nM] |
| --- | --- | --- | --- |
| B1 | 0.758 | – | – |
| B2 | 29.4 | – | – |
| B3 | 2.21 | – | – |
| B4 | 2.27 | – | – |
| B5 | 20.1 | 1.88 | – |
| B6 | 2.79 | – | – |
| B7 | 3.59 | – | – |
| B8 | – | – | 1.42 |
| B9 | 27.8 | – | – |
| B10 | – | – | 0.61 |
| B11 | – | – | 31.4 |
| B12 | – | – | 0.76 |
| B13 | 28.2 | 2.51 | – |
| B14 | 40.5 | 2.17 | – |
| B15 | – | – | 57.4 |
